# Patent US20240425589A1, “CYTOTOXICITY-INDUCING THERAPEUTIC AGENT FOR USE IN TREATMENT OF CANCER” (CHUGAI SEIYAKU KABUSHIKI KAISHA, priority 2021, published 2024)
# Legend:
# [1] = Single dose toxicology study; type: in vivo, cynomolgus monkey
# Experimental: Potential toxicity of PPU4135 antibody (anti-CLDN6/Dual-Fab tri-specific antibody) was evaluated in toxicity study using cynomolgus monkeys compared with CS3348 antibody (anti-CLDN6/CD3 bispecific antibody). Because both PPU4135 and CS3348 antibodies cross-reacted with their antigens of cynomolgus monkey, cynomolgus monkey was selected as the animal species for evaluations in the in vivo toxicology studies. Since toxicological findings seemed to be more sensitive in male than female animals in the toxicity study with CS3348 (FIG. 14), 2 males were used for evaluation of the PPU4135-mediated toxicity. In these studies, dose levels were set at 100 (for CS3348) or 90 (for PPU4135) micro g/kg, which were approximately 2.57-fold efficacious concentration producing 80% of the maximal response.
# OVCAR3 = OVCAR3 xenograft in huNOG mice, combination with carboplatin; type: in vivo; conditions: 56 days after transplantation; CS4135 0.1 mg/kg iv days 38, 45 (sequential: 48, 55), carboplatin 60 mg/kg ip days 38, 45
# Experimental: In this test, NOG (huNOG) mice (described in the aforementioned Example 13) transplanted with ovarian cancer cell line OVCAR3 and human CD34-positive cells were used. The OVCAR3 cell line was transplanted subcutaneously to the right flank of the mice, and the mice were divided into groups 38 days after transplantation. Individuals whose tumor volume reached 119 to 210 mm^3 were divided into groups. Vehicle 1 and CS4135 were administered into the mouse tail vein 38 and 45 days after transplantation. PBS containing 0.05% Tween-20 was used as Vehicle 1. Vehicle 2 and carboplatin (Bristol Myers Squibb Company) were administered intraperitoneally to the mice 38 and 45 days after transplantation. Physiological saline was used as Vehicle 2.
# Tumor volume was measured 38, 42, 45, 48, 52, and 56 days after transplantation, and the average tumor volume was indicated for each group. The tumor volume was calculated by the following equation: […]
# Tumor Growth Inhibition (TGI) was calculated by the following equation: […]
# OV-90 = assay: LDH release cytotoxicity on olaparib-treated OV-90; type: cell-based; conditions: OV-90, olaparib 3 μM three days vs DMSO, human PBMC
# Experimental: The effect of the enhanced induction of CLDN6 expression in BRCA1-deficient ovarian cancer cell line UWB1.289, caused by the PARP inhibitor (olaparib), on the cytotoxic activity of anti-CLDN6/Dual-Fab tri-specific antibody CS4135 was assessed.
# BRCA1-deficient ovarian cancer cell line UWB1.289 (ATCC) or BRAC1 wildtype ovarian cancer cell line OV-90 (ATCC) which express human CLDN6 were used as target cells.
# Each target cell (3×10^5 cells) were seeded at 5 mL into a 25 cm^2-flask. Two flasks were prepared for each target cell. After culturing overnight, olaparib was added at a final concentration of 3 μM to one of the two flasks. DMSO was added to the other flask. After incubating the flasks for three days, the target cells were recovered, and the cytotoxic activity of the CS4135 antibody was evaluated by […] (LDH) release assay using human PBMC as the effector cell.
# recombinant cyno CD137 = recombinant cyno CD137 (Macaca fascicularis, UniProt A9YYE7); assay: Biacore 8K SPR affinity to cyno CD137; type: binding, cynomolgus; conditions: cyno CD137, 37 degree C, pH 7.4
# Experimental: The binding affinity of the anti-CLDN6/Dual-Fab tri-specific antibody against recombinant human and cyno CD3eg (gamma and epsilon subunits of CD3) at pH 7.4 was determined at 25 degree C. using Biacore 8K instrument (GE Healthcare). The binding affinity of the anti-CLDN6/Dual-Fab tri-specific antibody against recombinant human and cyno CD137 at pH 7.4 was determined at 37 degree C. using Biacore 8K instrument (GE Healthcare). Anti-human Fc (GE Healthcare) antibody was immobilized onto all flow cells of a CM4 sensor chip using amine coupling kit (GE Healthcare). Tested antibody and analytes were prepared in ACES pH 7.4 containing 20 mM ACES, 150 mM NaCl, 0.05% Tween 20, 0.005% NaN3. Anti-CLDN6/Dual-Fab tri-specific antibody was captured onto the sensor surface by anti-human Fc. Antibody capture levels were aimed at 300 resonance unit (RU). Recombinant CD3eg and CD137 were injected at both 500 and 2000 nM, followed by dissociation. Sensor surface was regenerated each cycle with 3M MgCl2. […] Binding affinities were determined by processing and fitting the data to 1:1 binding model using Biacore Insight Evaluation software (GE Healthcare).
# [2] = test system: GloResponse NFAT-luc2 Jurkat cells with OVCAR3 and H1435 cells; assay: NFAT-luc2 Jurkat luciferase assay with chemotherapeutic-treated cancer cells; type: cell-based, human; conditions: cells treated with cisplatin or carboplatin for 5 days vs untreated
# Experimental: Next, measurement was carried out based on a luciferase assay system using GloResponse NFAT-luc2 Jurkat cells (Promega, J1601) to see if T-cell-activation ability of CS4135 antibody via CD3 binding will change depending on the presence or absence of treatment by a chemotherapeutic agent.
# The assay was performed as follows. First, as described above, OVCAR3 and H1435 cells treated with a chemotherapeutic agent for 5 days were detached from a culture flask and plated at 25 μL/well (2×10^4 cells) onto a white flat-bottom 96-well plate (Coster #3917). Next, 1×10^5 Jurkat/NFAT-RE reporter cell line together with the CS4135 antibody at a concentration selected from 0.003, 0.03, 0.3, 3, or 30 nM were added at 25 μL/well. After culturing overnight at 37° C., Bio-Glo reagent (Promega #G7941) was added at 75 μL/well followed by further incubation at room temperature for 10 minutes. Then, luminescence arose from activated Jurkat cells was measured using an EnSpire (PerkinElmer Japan) device. The luminescence magnification of each well was calculated by comparing the wells with the antibody to the wells without the antibody.
# recombinant cyno CD137, sequence (A9YYE7 1-254): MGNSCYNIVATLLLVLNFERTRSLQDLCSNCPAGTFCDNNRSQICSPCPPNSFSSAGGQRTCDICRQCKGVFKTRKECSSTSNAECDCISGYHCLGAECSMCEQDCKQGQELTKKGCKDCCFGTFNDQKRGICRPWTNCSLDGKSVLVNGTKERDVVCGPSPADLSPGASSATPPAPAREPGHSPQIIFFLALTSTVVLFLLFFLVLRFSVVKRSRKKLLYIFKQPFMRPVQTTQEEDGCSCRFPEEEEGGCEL
molecule,measurement,setting,value
"PPU4135: anti-CLDN6/Dual-Fab tri-specific antibody, chains SEQ ID NOs 42, 51, 56, 69; CS4135 same antibody (protein) chain 1: QVQLVESGGGVVQPGGSLRLSCAASGFTFSSYTMSWVRQAPGQGLEWMGTISSGGGRTYYPDSVKGRFTISRDNSKNTLYLQMNSLRDEDTAVYYCARGDYRYDGFAYWGEGTLVTVSSASTKGPSVFPLAPSSKSTSGGTAALGCLVEDYFPEPVTVSWNSGALTSGVHTFPAVLESSGLYSLSSVVTVPSSSLGTQTYICNVNHKPSNTKVDKRVEPKSCDKTHTCPPCPAPEAAGGPSVFLFPPKPKDTLMISRTPEVTCVVVDVSHEDPEVKFNWYVDGVEVHNAKTKPREEQYASTYRVVSVLTVLHQDWLNGKEYKCKVSNKALPAPIEKTISKAKGQPREPQVYTLPPSREEMTKNQVSLTCLVKGFYPSDIAVEWESNGQPENNYKTTPPVLDSDGSFFLYSKLTVDKSRWQQGNVFSCSVMHEALHNHYTQESLSLSP chain 2: DIQMTQSPSSLSASVGDRVTITCRASYNIDSYLAWYQQKPGKAPELLIYYSTLLVDGVPDRFSGSRSGTDFTLTISSLQPEDFATYYCQHYYSIPYTFGQGTKVEIERTVAAPSVFIFPPSDEQLKSGTAKVVCLLNNFYPREAKVQWKVDNALQSGNSKESVTEQDSKDSTYSLSSTLTLSKADYEKHKVYACEVTHQGLSSPVTKSFNRGEC chain 3: QVQLVESGGGLVQPGRSLRLSCAASGFKFSNVWFHWVRQAPGKGLEWVAQIKDYYNAYAAYYAPSVKGRFTISRDDSKNSIYLQMNSLKTEDTAVYYCHYVHYASASTLLPAEGVDAWGQGTTVTVSSASTKGPSVFPLAPSSKSTSGGTAALGCLVKDYFPEPVTVSWNSGALTSGVHTFPAVLKSSGLYSLSSVVTVPSSSLGTQTYICNVNHKPSNTKVDKRVEPKSCDKTHTCPPCPAPEAAGGPSVFLFPPKPKDTLMISRTPEVTCVVVDVSHEDPEVKFNWYVDGVEVHNAKTKPREEQYASTYRVVSVLTVLHQDWLNGKEYKCKVSNKALPAPIEKTISKAKGQPREPQVYTLPPSRKEMTKNQVSLTCLVKGFYPSDIAVEWESNGQPENNYKTTPPVLDSDGSFFLYSKLTVDKSRWQQGNVFSCSVMHEALHNHYTQKSLSLSP chain 4: DIVMTQSPLSLPVTPGEPASISCQPSQEVVHMNRNTYLHWYQQKPGQAPRLLIYKVSNRFPGVPDRFSGSGSGTDFTLKISRVEAEDVGVYYCAQGTSHPFTFGQGTKLEIKRTVAAPSVFIFPPSDEQLKSGTAEVVCLLNNFYPREAKVQWKVDNALQSGNSEESVTEQDSKDSTYSLSSTLTLSKADYEKHKVYACEVTHQGLSSPVTKSFNRGEC",hepatobiliary damage parameters and inflammatory marker elevations,[1]; PPU4135 90 micro g/kg compared with CS3348 100 micro g/kg,dramatically mitigated
same,"AST, ALT, GLDH, ALP, TBIL, GGT, TBA and CRP","[1]; male animals, after single IV administration",Increased
same,plasma exposure levels,"[1]; male animals, until Day 8, PPU4135 90 vs CS3348 100 micro g/kg single IV",comparable
same,Tumor growth inhibition: TGI,OVCAR3,18%
same,cytotoxic activity after addition of olaparib,OV-90,no effect on cytotoxic activity
same,ka,recombinant cyno CD137,8350 M⁻¹ s⁻¹
same,kd,recombinant cyno CD137,0.00146 s⁻¹
same,T cell activation ability via CD3,[2],enhanced
